Assay results as given in patent publication US20250270295A1 (ALBERT LUDWIGS UNIVERSITAET FREIBURG, published 2025).

Biological target: T1, C-reactive protein (human, UniProt P02741 19-224)
T1 construct: also called CRP; human CRP
T1 sequence: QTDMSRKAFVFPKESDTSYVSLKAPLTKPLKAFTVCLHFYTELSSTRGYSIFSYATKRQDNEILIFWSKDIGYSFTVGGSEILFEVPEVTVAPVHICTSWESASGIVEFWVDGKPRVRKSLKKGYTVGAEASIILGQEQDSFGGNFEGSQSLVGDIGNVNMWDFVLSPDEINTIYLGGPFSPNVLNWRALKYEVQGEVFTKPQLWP
Experiment: ELISA, CRP beside IgG1 and IgA

B1: soluble gp34 ectodomain W65F, V5-His tagged (sgp34mtrp-V5-His) (receptor)
chain: SSSNAVEPTKKPLKLANYRATCEDRTRTLVTRLNTSHHSVVFQRYDIYSRYMRRMPPLCIITDAYKETTRQGGAAFACTRQNLTLYNLTVKDTGVYLLQDQYTGDVEAFYLIIHPRSFCRALETRRCFYPGPGRVVVTDSQEADRAIISDLKRQWSGKPIPNPLLGLDSTRTGHHHHHH
notes: signal peptide 1-23 left out; V5 and His tags are in the entry; Forms only monomers and dimers; also called sol gp34mtrp; gp34 1-179 W65F
- binding result: binds
